Data: patent US20210238276A1 (INTEGRAL MOLECULAR, published 2021)

T1: hsGLUT4 L155A (human, UniProt P14672 1-509)
T1 sequence: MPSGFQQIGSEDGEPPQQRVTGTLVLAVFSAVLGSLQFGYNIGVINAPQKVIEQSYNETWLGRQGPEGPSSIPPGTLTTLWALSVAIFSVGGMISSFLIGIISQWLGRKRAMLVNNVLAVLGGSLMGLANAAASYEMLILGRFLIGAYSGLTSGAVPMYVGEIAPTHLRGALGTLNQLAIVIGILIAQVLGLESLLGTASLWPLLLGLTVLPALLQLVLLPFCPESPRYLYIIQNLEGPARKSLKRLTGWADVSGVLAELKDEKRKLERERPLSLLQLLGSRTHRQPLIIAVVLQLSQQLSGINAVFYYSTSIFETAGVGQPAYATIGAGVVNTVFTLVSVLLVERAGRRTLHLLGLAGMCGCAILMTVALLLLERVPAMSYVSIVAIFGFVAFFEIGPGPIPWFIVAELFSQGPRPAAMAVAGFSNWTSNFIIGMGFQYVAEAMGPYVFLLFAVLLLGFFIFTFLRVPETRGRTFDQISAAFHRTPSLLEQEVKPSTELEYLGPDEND

T2: hsGLUT4 Y159A (human, UniProt P14672 1-509)
T2 sequence: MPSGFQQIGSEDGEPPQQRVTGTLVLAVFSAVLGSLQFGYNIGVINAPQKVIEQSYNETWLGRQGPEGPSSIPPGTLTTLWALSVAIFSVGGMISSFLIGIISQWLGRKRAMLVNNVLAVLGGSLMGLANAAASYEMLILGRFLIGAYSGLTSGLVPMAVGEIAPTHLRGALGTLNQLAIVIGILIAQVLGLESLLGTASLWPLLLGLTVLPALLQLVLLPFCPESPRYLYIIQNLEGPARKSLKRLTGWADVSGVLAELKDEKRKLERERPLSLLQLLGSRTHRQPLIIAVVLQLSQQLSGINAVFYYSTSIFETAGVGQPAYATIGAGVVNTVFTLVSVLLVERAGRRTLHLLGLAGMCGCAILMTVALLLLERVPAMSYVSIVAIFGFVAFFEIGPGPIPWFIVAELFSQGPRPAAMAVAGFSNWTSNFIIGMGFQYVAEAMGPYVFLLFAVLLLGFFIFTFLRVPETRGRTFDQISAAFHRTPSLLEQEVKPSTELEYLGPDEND

T3: hsGLUT4 G504A (human, UniProt P14672 1-509)
T3 sequence: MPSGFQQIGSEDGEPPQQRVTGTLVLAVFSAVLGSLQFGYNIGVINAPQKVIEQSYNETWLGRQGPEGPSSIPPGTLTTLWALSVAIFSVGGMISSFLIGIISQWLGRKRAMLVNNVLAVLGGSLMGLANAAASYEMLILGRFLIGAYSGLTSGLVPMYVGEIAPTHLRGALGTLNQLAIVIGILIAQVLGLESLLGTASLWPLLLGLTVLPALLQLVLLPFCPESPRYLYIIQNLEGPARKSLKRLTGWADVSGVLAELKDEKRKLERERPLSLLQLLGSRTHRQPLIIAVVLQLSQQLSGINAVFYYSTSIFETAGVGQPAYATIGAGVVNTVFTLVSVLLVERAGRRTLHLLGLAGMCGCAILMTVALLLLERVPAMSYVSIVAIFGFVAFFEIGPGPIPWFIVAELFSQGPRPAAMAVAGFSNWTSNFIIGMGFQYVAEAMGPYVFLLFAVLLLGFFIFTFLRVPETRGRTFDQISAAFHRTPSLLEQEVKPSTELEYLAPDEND

T4: hsGLUT4 D506A (human, UniProt P14672 1-509)
T4 sequence: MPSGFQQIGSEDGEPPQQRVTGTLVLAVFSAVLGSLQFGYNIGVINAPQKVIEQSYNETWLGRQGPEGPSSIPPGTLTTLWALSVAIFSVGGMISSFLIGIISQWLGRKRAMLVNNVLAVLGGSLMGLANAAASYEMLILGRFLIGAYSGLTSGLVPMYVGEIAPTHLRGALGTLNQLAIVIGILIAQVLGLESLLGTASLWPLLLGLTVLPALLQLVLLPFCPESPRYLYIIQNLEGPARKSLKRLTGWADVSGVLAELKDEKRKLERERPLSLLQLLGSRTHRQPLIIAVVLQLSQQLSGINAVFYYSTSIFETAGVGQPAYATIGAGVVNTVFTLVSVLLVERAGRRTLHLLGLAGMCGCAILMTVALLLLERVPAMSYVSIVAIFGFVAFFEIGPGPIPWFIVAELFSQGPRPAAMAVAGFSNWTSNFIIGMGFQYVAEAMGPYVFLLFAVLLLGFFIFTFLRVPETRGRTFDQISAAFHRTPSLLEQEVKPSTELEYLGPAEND


Key:
Experiment in all cases: flow cytometry, alanine-scan library in HEK-293T
hsGLUT4 L155A = target: T1, hsGLUT4 L155A
Protocol: (§1) Because of the state-dependence of the isolated MAbs, we next wished to understand the mechanism by which each MAb could recognize GLUT4 in its different conformations. The residues required for binding of each MAb were determined using shotgun mutagenesis comprehensive alanine scanning (Davidson E & Doranz B J (2014) A High-Throughput Shotgun Mutagenesis Approach to Mapping B-cell Antibody Epitopes. Immunology, which is hereby incorporated by reference in its entirety). All residues of hsGLUT4 were individually mutated to alanine, with existing alanines changed to serines. Mutations were obtained for 508 of the 509 residues of GLUT4 (excluding the initiating methionine). The entire mutation library was transfected into human HEK-293T cells in a 384-well array format (one clone per well) and assessed for immunoreactivity using high-throughput flow cytometry.
(§2) HEK-293T cells were transfected by CaPO₄ with plasmids in 6-well culture plates (Falcon) at 750,000 cells/well. At 48 hours post transfection, cells were stained with anti-V5 and anti-GLUT4 MAbs (purified scFv, 2 μg/ml) followed by biotinylated goat anti-mouse or human antibody (1:500) and streptavidin-PerCP (1:500). Fluorescence was detected using an Intellicyt high-throughput flow cytometer (HTFC; Intellicyt, Albuquerque, N. Mex.). For cell permeabilization, cells were treated with saponin at 0.1% in PBS for 20 minutes. To discriminate intact (live) and permeabilized (dead) cells without the use of detergent, propidium iodide (PI) was added to HEK-293T cells at 1 ug/ml just prior to flow cytometry. Where indicated, cytochalasin B (Sigma) was used at a final concentration of 10 uM and phloretin (Sigma) was used at a final concentration of 100 uM, each added in 10% NGS for 30 minutes prior to antibody staining as well as included with the primary antibody.

hsGLUT4 Y159A = target: T2, hsGLUT4 Y159A
Protocol: as §1, §2

hsGLUT4 G504A = target: T3, hsGLUT4 G504A
Protocol: as §1, §2

hsGLUT4 D506A = target: T4, hsGLUT4 D506A
Protocol: as §1, §2

Row | Molecule | % of binding to wild type GLUT4 (hsGLUT4 L155A) [%] | % of binding to wild type GLUT4 (hsGLUT4 Y159A) [%] | % of binding to wild type GLUT4 (hsGLUT4 G504A) [%] | % of binding to wild type GLUT4 (hsGLUT4 D506A) [%]
1 | 1F8 (antibody) | 91 | 96 | 120 | 29
2 | AB108 (Fc fusion, Bivalent scFv-Fc; also called MAb AB108; not shown: Fc fragment of human IgG1, cloned in frame with the scFv) scFv: ALTQPSSVSANLGGTVKITCSGSSGSYGWYQQKAPGSAPVTLIYRNDKRPSDIPSRFSGSESGSTGTLTITGVQAEDEAVYFCGGYDSSAGYAAFGAGTTLTVLGQSSRSSGGGGSSGGGGSAVTLDESGGGLQTPGGALSLVCKASGFTFSSHGMGWVRQAPGKGLEWVGSISTGRYTFYAPAVKGRATISRDNGQSTLRLQLNNLRAEDTGTYYCTKCAGLNGCGGGEIDAWGHGTEVIVSS | 42 | 46 | 141 | 105
3 | AB111 (Fc fusion, Bivalent scFv-Fc; also called MAb AB111; not shown: Fc fragment of human IgG1, cloned in frame with the scFv) scFv: ALTQPSSVSANPGETVKITCSGSGSWYGWFQQKSPGSAPVTVIYSNDKRPSDIPSRFSGSKSGSTSTLTITGVQVEDEAVYYCGNWDIFGAGTTLTVLGQSSRSSGGGGSSGGGGSAVTLDESGGGLQTPGGALSLVCKASGFTFSSHGMGWVRQAPGKGLEWVASISTGRYTFYAPAVKGRATISRDNGQSTVRLQLNNLRAEDTATYYCTKCAGLNGCGGGEIDAWGHGTEVIVSS | 57 | 88 | 172 | 158
4 | AB101 (scFv, Chicken-derived clone used as a control; the four lead clones were tested as scFv-human IgG1 Fc; also called MAb AB101) scFv: ALTQPSSVSANPGETVKITCSGSSNSYGWYQQKSPGSAPVTVIYYNDKRPSDIPSRFSGSKSDSTHTLTITGVRAEDEAVYFCGSYDSTYVGIFGAGTTLTVLGQSSRSSGGGGSSGGGGSAVTLDESGGGLQTPGGTLSLVCKASGFTFSSNAMGWVRQAPGKGLEWVAGISSDGRYTKYGSAVKGRATISRDNGQSTVRLQLNNLRAEDTGTYFCAKAFGNNYRRIYAGQIDAWGHGTEVIVSS | 88 | 122 | 8 | 34
